Two molecules from patent US20030049661A1 (JCR PHARMACEUTICALS, published 2003) can be followed below.

The target of test [1] is endogenous Rim2 of PC12 cells. Description: cell-based or functional assay.
The target in test [2] is T1, constitutively active bovine Rab3A (Q81L), full-length, bait in pBTM116 (bovine, UniProt P11023 1-220).
T1 construct: also called active Rab3A (Q81L); not shown: fusion partner encoded by bait vector pBTM116
T1 sequence (looked up): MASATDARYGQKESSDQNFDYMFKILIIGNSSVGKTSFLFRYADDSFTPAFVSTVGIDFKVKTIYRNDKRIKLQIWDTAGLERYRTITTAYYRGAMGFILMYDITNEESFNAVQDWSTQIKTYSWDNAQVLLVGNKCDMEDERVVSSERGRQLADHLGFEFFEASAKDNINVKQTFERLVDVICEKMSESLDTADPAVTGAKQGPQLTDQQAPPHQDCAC
Description: yeast two-hybrid, liquid β-galactosidase assay.

In the case of “wild-type cAMP-GEFII (expressed in PC12 cells from pSRα) (from UniProt Q9EQZ6 1-1011)”, in test [1], the 8-Br-cAMP (1 mM)-induced, Ca2+-dependent GH secretion is 34.9%.

B1: rat Rim1 zinc finger domain (amino acid residues 1-204), prey in pVP16 (other, UniProt Q9JIR4 1-204, looked up)
chain: MSSAVGPRGPRPPTVPPPMQELPDLSHLTEEERNIIMAVMDRQKEEEEKEEAMLKCVVRDMAKPAACKTPRNAESQPHQPPLNIFRCVCVPRKPSSEEGGPERDWRLHQQFESYKEQVRKIGEEARRYQGEHKDDAPTCGICHKTKFADGCGHLCSYCRTKFCARCGGRVSLRSNNEDKVVMWVCNLCRKQQEILTKSGAWFFG
notes: range 1-204; not shown: fusion partner encoded by prey vector pVP16
On to B1, for which the binding result in test [2] is recorded as “binds”.
